Assay results from publication PMC5467210 (2017).
Blank lines part the entries; values can stand above or below the molecule they belong to.

Columns and labels:
[1] = target: T1, NatA complex (Naa15-Naa10ΔC-His6) (Chaetomium thermophilum); experiment: ITC; HypK-StrepII variants (100-400 μM) in the syringe, preformed NatA (Naa15-Naa10ΔC-His6, 10-40 μM) in the cell; 25 °C; 20 mM HEPES pH 7.5, 150 mM NaCl, 10 mM MgCl2, 10 mM KCl; single-site model; triplicates
T1 chain 1: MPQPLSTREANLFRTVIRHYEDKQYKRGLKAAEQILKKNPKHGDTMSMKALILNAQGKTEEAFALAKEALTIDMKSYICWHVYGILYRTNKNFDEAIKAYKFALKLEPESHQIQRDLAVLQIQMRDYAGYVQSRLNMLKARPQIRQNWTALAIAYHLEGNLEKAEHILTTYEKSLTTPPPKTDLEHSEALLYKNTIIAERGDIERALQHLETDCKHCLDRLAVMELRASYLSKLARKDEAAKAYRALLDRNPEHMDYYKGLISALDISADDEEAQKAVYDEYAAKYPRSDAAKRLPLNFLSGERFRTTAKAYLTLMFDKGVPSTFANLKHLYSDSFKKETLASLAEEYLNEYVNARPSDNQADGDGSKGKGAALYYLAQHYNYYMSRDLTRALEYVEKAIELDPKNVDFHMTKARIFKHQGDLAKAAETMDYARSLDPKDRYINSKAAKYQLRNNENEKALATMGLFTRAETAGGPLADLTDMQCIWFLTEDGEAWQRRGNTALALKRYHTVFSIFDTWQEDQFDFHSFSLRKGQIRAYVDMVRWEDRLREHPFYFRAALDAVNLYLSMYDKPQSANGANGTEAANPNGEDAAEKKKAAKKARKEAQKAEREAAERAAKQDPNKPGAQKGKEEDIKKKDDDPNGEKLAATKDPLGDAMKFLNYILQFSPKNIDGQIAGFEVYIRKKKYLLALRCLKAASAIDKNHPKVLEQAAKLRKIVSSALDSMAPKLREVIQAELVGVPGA
T1 chain 2: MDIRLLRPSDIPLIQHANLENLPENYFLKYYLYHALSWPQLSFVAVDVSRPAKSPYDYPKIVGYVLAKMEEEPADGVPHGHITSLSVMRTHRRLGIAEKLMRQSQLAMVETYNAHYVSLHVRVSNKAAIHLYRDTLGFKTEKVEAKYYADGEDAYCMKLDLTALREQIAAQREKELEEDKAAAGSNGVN

[2] = target: NatA complex (His6-Naa15-Naa10ΔC-His6) (Chaetomium thermophilum); experiment: SEC-MALS; NatA-HypK complex (0.2 mg) on Superdex 200 10/300 in SEC buffer coupled to MALS
[3] = target: T1, NatA complex (Naa15-Naa10ΔC-His6); experiment: ITC

Kd [1]: 38.3 nM
Molecule: HypK-StrepII (full length) (natural protein)

stoichiometry N [2]: 1
Molecule: His6-HypK (full length) (natural protein)

Kd [3]: 28.6 nM
B1: HypKΔN50-StrepII (domain or fragment)
chain: MAPAREVDQEAVKNAMSALSGASTEKKEVKKVKVDPADVNLLVEELELSKAKATELLKAHDGDAIKAMKAYIQPAF

Kd [3]: 46.9 nM
B2: HypK-THB-StrepII (domain or fragment)
chain: GAMGKVDPADVNLLVEELELSKAKATELLKAHDGDAIKAMKAYIQPAFGSGSGSWSHPQFEK
